This note sets out measurements from patent US20230272055A1, “ANTI-MUTANT CALRETICULIN (CALR) ANTIBODIES AND USES THEREOF” (Incyte Corporation, priority 2021, published 2023).

Assay [1] addresses Human Type 1 mutCALR (human). Nature of the assay: cell-based or functional assay.
Assay [2] deals with recombinant Flag tag_GFP_tev_hmutCALR Type 1 (human). Nature of the assay: HTRF competition against the mutCALR/MPL complex. (TR-FRET usually uses a lanthanide donor and a delayed reading to cut background.)

AB1: CAL2 antibody, Dianova: the IC50 of inhibition of cell proliferation (BaF3 cells expressing MPL/mutCALR Type 1) in assay [1] was above 60 µg/mL. Regarding CAL2 antibody (Dianova), the concentration at which some signal inhibition was seen in assay [2] is above 100 nM.
